Reference: patent US6936690 (Takeda / Millennium, dated 2005)
Positions count from the first letter of the chain named. Names may count otherwise. Each block holds one binder with its values, some of them ahead of it.

Assays:
[1] = target: T1, Myc-tagged CARD-14 (full-length CARD-14 with C-terminal Myc epitopes, pCMV-Tag 5A) (human, UniProt Q9BXL6 1-1004); test: co-localization by immunofluorescence in Rat-1 cells
T1 construct: Expressed in 293T cells (co-immunoprecipitation, Bcl-10 phosphorylation) and Rat-1 cells (co-localization)
T1 sequence: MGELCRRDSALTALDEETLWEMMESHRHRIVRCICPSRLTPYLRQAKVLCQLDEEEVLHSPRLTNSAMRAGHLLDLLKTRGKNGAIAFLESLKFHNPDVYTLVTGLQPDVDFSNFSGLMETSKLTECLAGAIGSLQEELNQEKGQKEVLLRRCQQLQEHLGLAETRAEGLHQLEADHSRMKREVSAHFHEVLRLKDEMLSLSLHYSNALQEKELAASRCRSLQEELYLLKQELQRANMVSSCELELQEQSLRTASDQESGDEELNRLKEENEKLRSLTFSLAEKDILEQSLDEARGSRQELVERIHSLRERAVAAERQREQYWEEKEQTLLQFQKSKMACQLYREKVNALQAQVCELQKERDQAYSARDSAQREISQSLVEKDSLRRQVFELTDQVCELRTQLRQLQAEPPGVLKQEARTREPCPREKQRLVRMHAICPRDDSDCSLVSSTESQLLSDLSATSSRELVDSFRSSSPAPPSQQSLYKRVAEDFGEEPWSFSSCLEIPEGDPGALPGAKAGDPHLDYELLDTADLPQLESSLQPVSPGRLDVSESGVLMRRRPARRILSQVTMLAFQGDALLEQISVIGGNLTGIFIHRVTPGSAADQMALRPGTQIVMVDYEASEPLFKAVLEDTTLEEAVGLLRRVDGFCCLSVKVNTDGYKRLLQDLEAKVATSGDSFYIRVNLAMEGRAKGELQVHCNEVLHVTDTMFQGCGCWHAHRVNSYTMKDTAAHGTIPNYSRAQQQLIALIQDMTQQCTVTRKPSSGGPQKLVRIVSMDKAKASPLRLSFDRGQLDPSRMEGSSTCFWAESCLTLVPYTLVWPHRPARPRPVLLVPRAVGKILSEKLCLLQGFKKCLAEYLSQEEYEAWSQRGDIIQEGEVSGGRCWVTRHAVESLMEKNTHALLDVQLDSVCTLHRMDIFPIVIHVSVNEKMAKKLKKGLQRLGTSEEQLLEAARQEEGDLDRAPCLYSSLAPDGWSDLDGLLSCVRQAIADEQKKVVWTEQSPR
Procedure: To further confirm the interaction between CARD-14 and Bcl-10, co-localization experiments were performed with full-length CARD-14. In these studies, Rat-1 cells were transfected in PDL-coated glass chamber slides (BioCoat, Becton-Dickinson Labware) with plasmids expressing HA-tagged Bcl10 and Myc-tagged CARD-14 using FuGENE-6 (Roche Molecular Biochemicals) for 20 hours. Cells were fixed in 4% paraformaldehyde, permeabilized and blocked in buffer containing 0.4% Triton X-100, and sequentially incubated with primary and secondary antibodies: rabbit anti-HA polyclonal Y-11 (Santa Cruz Biotechnology), mouse anti-Myc monoclonal 9E10 (Oncogene Research Products), Alexa-488 Goat anti-mouse IgG (Molecular Probes) and Alexa-594 Goat anti-rabbit IgG (Molecular Probes). No cross-reactivity was observed between any of the antibodies. Images were acquired using a Nikon T200 microscope with a 60× oil objective and an Orca100 digital camera (Hammamatsu, Inc.) driven by MetaMorph software (Universal Imaging Corp.). Final images were prepared using Adobe PhotoShop.

[2] = target: T2, CARD-14 protein labeled with 35S-methionine (human, UniProt Q9BXL6 1-1004, limits assumed, labeled with 35S-methionine); test: GST pull-down on glutathione-sepharose, autoradiography
T2 construct: also called radiolabeled CARD-14
T2 sequence: T1 sequence
Procedure: The interaction of radiolabeled CARD-14 with GST-Bcl-10 in vitro was also examined. Bcl-10 wild type and L41R mutant were expressed in DH5 alpha bacteria as GST fusion proteins and equal amounts of protein were immobilized on glutathione-sepharose (Amersham-Pharmacia). An equal amount of CARD-14 protein, labeled with ^35S-methionine, was incubated with the protein bound sepharose beads in 100 μl of binding buffer (50 mM Tris-Cl pH 7.6, 120 mM NaCl, 0.5% Brij and protease inhibitors) for three hours. The beads were washed four times with the same buffer and boiled in SDS sample buffer. The proteins were then resolved on a 10% SDS gel and visualized by autoradiography.

binding result [1]: binds
B1: HA-tagged Bcl10 (other, UniProt O95999 1-233, looked up, not shown: small tags and cut ends)
chain: MEPTAPSLTEEDLTEVKKDALENLRVYLCEKIIAERHFDHLRAKKILSREDTEEISCRTSSRKRAGKLLDYLQENPKGLDTLVESIRREKTQNFLIQKITDEVLKLRNIKLEHLKGLKCSSCEPFPDGATNNLSRSNSDESNFSEKLRASTVMYHPEGESSTTPFFSTNSSLNLPVLEVGRTENTIFSSTTLPRPGDPGAPPLPPDLQLEEEGTCANSSEMFLPLRSRTVSRQ
notes: Expressed in Rat-1 cells (co-localization) and 293T cells (phosphorylation); also called HA-Bcl-10

binding result [2]: no binding
B2: GST-Bcl-10 L41R mutant (other, UniProt O95999 1-233, looked up)
chain: B1 chain with L41R
notes: Expressed in DH5 alpha bacteria and immobilized on glutathione-sepharose; also called variant of Bcl-10 with a point mutation (L41R); not shown: GST fusion partner
